The data set relates to Escherichia coli TOP10. The experiment in a line: shrunken log2 fold change of peptide-encoding DNA abundance (4.5 h post-induction vs induction); higher = less antimicrobial activity (less host growth inhibition). The following applies: time post-induction: 4.5 h; library: site-saturation at positions 5, 18, 19, 20.

The record followed here is the supplement of paper PMC9112550, “Optimization of the antimicrobial peptide Bac7 by deep mutational scanning” (BMC Biology, 2022).
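Further: peptides expressed intracellularly from a pBAD plasmid library in pooled LB shake-flask culture, induced with 0.3% L-arabinose, DNA abundance read by NGS, three biological replicates, DESeq2 with apeglm shrinkage.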

As for RRIRDRPPRLPRPRPRPVWEPRP, the “shrunken log2 fold change” value worked out at 0.0337.

On to RRIRERPPRLPRPRPRPRAMPRP, for which the “shrunken log2 fold change” value worked out at 0.0549. Turning to RRIRVRPPRLPRPRPRPAGWPRP, the “shrunken log2 fold change” value amounted to 0.689.

RRIRQRPPRLPRPRPRPMIPPRP: the “shrunken log2 fold change” value is -0.0361. As for RRIRIRPPRLPRPRPRPYCPPRP, the “shrunken log2 fold change” value was -0.175.

On to RRIRIRPPRLPRPRPRPRLQPRP, for which the “shrunken log2 fold change” value is 0.123.

RRIRDRPPRLPRPRPRPVKTPRP: the “shrunken log2 fold change” value was found to be 0.0145. Take RRIRFRPPRLPRPRPRPINQPRP: the “shrunken log2 fold change” value was -0.694. As for RRIRVRPPRLPRPRPRPWPNPRP, the “shrunken log2 fold change” value was found to be 0.179.

In the case of RRIRDRPPRLPRPRPRPCYEPRP, the “shrunken log2 fold change” value amounted to 0.00345. RRIRWRPPRLPRPRPRPPACPRP: the “shrunken log2 fold change” value is 0.531. RRIRVRPPRLPRPRPRPWRHPRP: the “shrunken log2 fold change” value was 0.288. Under RRIRYRPPRLPRPRPRPATDPRP stands -0.327; under RRIRARPPRLPRPRPRPLQTPRP, 0.0966. For the sequence RRIRRRPPRLPRPRPRPEFKPRP, the “shrunken log2 fold change” value turned out to be 0.0599. For RRIRVRPPRLPRPRPRPCNHPRP, the “shrunken log2 fold change” value is -0.588. Under RRIRFRPPRLPRPRPRPRECPRP stands 0.277. Regarding RRIRVRPPRLPRPRPRPAWPPRP, the “shrunken log2 fold change” value is 0.537. RRIRYRPPRLPRPRPRPCPIPRP: the “shrunken log2 fold change” value was 0.0143. Consider RRIRDRPPRLPRPRPRPSIAPRP, for which the “shrunken log2 fold change” value is 0.146. With RRIRNRPPRLPRPRPRPMNEPRP, the “shrunken log2 fold change” value turned out to be 0.0961. RRIRHRPPRLPRPRPRPHYLPRP: the “shrunken log2 fold change” value is 0.0305. As for RRIRVRPPRLPRPRPRPPAEPRP, the “shrunken log2 fold change” value worked out at 0.253. Consider RRIRNRPPRLPRPRPRPMHMPRP, for which the “shrunken log2 fold change” value is -0.00926. With RRIRMRPPRLPRPRPRPSFRPRP, the “shrunken log2 fold change” value is 0.142. Consider RRIRWRPPRLPRPRPRPVWPPRP, for which the “shrunken log2 fold change” value was determined as 0.909. As to RRIRYRPPRLPRPRPRPKTIPRP, the “shrunken log2 fold change” value was -0.421.

On to RRIRSRPPRLPRPRPRPQYYPRP, for which the “shrunken log2 fold change” value is -0.29. On to RRIRFRPPRLPRPRPRPSFYPRP, for which the “shrunken log2 fold change” value is -0.514. Turning to RRIRMRPPRLPRPRPRPKMEPRP, the “shrunken log2 fold change” value is 1.45.

Take RRIRWRPPRLPRPRPRPLGEPRP: the “shrunken log2 fold change” value came out at 0.224.

In the case of RRIRKRPPRLPRPRPRPWCCPRP, the “shrunken log2 fold change” value was -0.187. Under RRIRMRPPRLPRPRPRPEYYPRP stands -0.218; under RRIRGRPPRLPRPRPRPICQPRP, 0.655; under RRIRVRPPRLPRPRPRPAESPRP, 0.0613. RRIRRRPPRLPRPRPRPEMAPRP: the “shrunken log2 fold change” value was 0.145. RRIRERPPRLPRPRPRPGETPRP: the “shrunken log2 fold change” value was determined as 0.0954. In the case of RRIRFRPPRLPRPRPRPPSCPRP, the “shrunken log2 fold change” value is 0.337.

For RRIRPRPPRLPRPRPRPTVPPRP, the “shrunken log2 fold change” value was -0.0252.

As to RRIRQRPPRLPRPRPRPTFSPRP, the “shrunken log2 fold change” value was -0.0427. For RRIRIRPPRLPRPRPRPSDRPRP, the “shrunken log2 fold change” value was -0.24. As for RRIRQRPPRLPRPRPRPDPNPRP, the “shrunken log2 fold change” value is -0.187.

As for RRIRNRPPRLPRPRPRPCNAPRP, the “shrunken log2 fold change” value was -0.0514. Under RRIRLRPPRLPRPRPRPAIIPRP stands -0.197; under RRIRSRPPRLPRPRPRPPKMPRP, 0.00423.

With RRIRYRPPRLPRPRPRPQSLPRP, the “shrunken log2 fold change” value is -0.0376.

In the case of RRIRCRPPRLPRPRPRPPLMPRP, the “shrunken log2 fold change” value amounted to 0.121.

Regarding RRIRNRPPRLPRPRPRPDSEPRP, the “shrunken log2 fold change” value was -0.0671.

As for RRIRCRPPRLPRPRPRPCGWPRP, the “shrunken log2 fold change” value was 0.456. For RRIRPRPPRLPRPRPRPFHYPRP, the “shrunken log2 fold change” value is -1.27. In the case of RRIRRRPPRLPRPRPRPNCFPRP, the “shrunken log2 fold change” value amounted to 0.176. Under RRIRFRPPRLPRPRPRPSISPRP stands -1.18; under RRIRYRPPRLPRPRPRPLNYPRP, -0.0845; under RRIRRRPPRLPRPRPRPELGPRP, 0.809. Under RRIRARPPRLPRPRPRPLDVPRP stands -0.07.

As for RRIRKRPPRLPRPRPRPGTDPRP, the “shrunken log2 fold change” value is -0.165. As for RRIRDRPPRLPRPRPRPNCYPRP, the “shrunken log2 fold change” value is -0.414.

In the case of RRIRNRPPRLPRPRPRPKQPPRP, the “shrunken log2 fold change” value amounted to 0.00591. Turning to RRIRCRPPRLPRPRPRPSSSPRP, the “shrunken log2 fold change” value was -0.366. The value for RRIRPRPPRLPRPRPRPHTSPRP was -0.622; that for RRIRGRPPRLPRPRPRPWMWPRP was 0.218; that for RRIRGRPPRLPRPRPRPFNEPRP was -0.231.

For RRIRCRPPRLPRPRPRPTPDPRP, the “shrunken log2 fold change” value was determined as 0.857. For the sequence RRIRDRPPRLPRPRPRPCDPPRP, the “shrunken log2 fold change” value was determined as 0.041. RRIRQRPPRLPRPRPRPYVLPRP: the “shrunken log2 fold change” value was -0.512.

Consider RRIRQRPPRLPRPRPRPFHWPRP, for which the “shrunken log2 fold change” value came to 0.0728.

As for RRIRRRPPRLPRPRPRPELNPRP, the “shrunken log2 fold change” value was 0.312.

For the sequence RRIRLRPPRLPRPRPRPWPSPRP, the “shrunken log2 fold change” value was 0.341. Turning to RRIRQRPPRLPRPRPRPDANPRP, the “shrunken log2 fold change” value was 0.0607.

On to RRIRSRPPRLPRPRPRPILVPRP, for which the “shrunken log2 fold change” value was 0.0112. Consider RRIRSRPPRLPRPRPRPINIPRP, for which the “shrunken log2 fold change” value was -0.589. As to RRIRTRPPRLPRPRPRPPKNPRP, the “shrunken log2 fold change” value was -0.0268. In the case of RRIRRRPPRLPRPRPRPQVEPRP, the “shrunken log2 fold change” value was 0.0147. On to RRIRHRPPRLPRPRPRPIKMPRP, for which the “shrunken log2 fold change” value is -0.0865. In the case of RRIRTRPPRLPRPRPRPERCPRP, the “shrunken log2 fold change” value was 0.0057. In the case of RRIRTRPPRLPRPRPRPYYQPRP, the “shrunken log2 fold change” value was -0.122. Turning to RRIRDRPPRLPRPRPRPHGNPRP, the “shrunken log2 fold change” value is -0.149. As to RRIRNRPPRLPRPRPRPQNCPRP, the “shrunken log2 fold change” value was found to be 0.0292. The value for RRIRARPPRLPRPRPRPEKGPRP was -0.0434; that for RRIRTRPPRLPRPRPRPICHPRP was 0.055; that for RRIRFRPPRLPRPRPRPMFIPRP was -0.443. Turning to RRIRIRPPRLPRPRPRPGDTPRP, the “shrunken log2 fold change” value is -0.372. RRIRCRPPRLPRPRPRPPHIPRP: the “shrunken log2 fold change” value came to 0.177. With RRIRMRPPRLPRPRPRPYCFPRP, the “shrunken log2 fold change” value was -0.28. Take RRIRDRPPRLPRPRPRPFSRPRP: the “shrunken log2 fold change” value is -0.164. Regarding RRIRTRPPRLPRPRPRPSNTPRP, the “shrunken log2 fold change” value is -0.732.

Consider RRIRGRPPRLPRPRPRPFTPPRP, for which the “shrunken log2 fold change” value is 0.0836. Turning to RRIRPRPPRLPRPRPRPLTDPRP, the “shrunken log2 fold change” value was 0.111. For RRIRIRPPRLPRPRPRPCECPRP, the “shrunken log2 fold change” value worked out at 0.0112. RRIRHRPPRLPRPRPRPEGPPRP: the “shrunken log2 fold change” value was -0.0401. As for RRIRGRPPRLPRPRPRPSHSPRP, the “shrunken log2 fold change” value was found to be 0.0319.

Consider RRIRKRPPRLPRPRPRPLRHPRP, for which the “shrunken log2 fold change” value amounted to 0.35. Consider RRIRIRPPRLPRPRPRPPQRPRP, for which the “shrunken log2 fold change” value was found to be 0.27. With RRIRKRPPRLPRPRPRPINDPRP, the “shrunken log2 fold change” value is -0.48. Regarding RRIRLRPPRLPRPRPRPCWTPRP, the “shrunken log2 fold change” value was -0.252. On to RRIRERPPRLPRPRPRPKFSPRP, for which the “shrunken log2 fold change” value is -0.0396. Take RRIRNRPPRLPRPRPRPDFGPRP: the “shrunken log2 fold change” value was -0.0978. The value for RRIRVRPPRLPRPRPRPVHVPRP was -0.0459. The value for RRIRWRPPRLPRPRPRPGYQPRP was -0.00973. On to RRIRTRPPRLPRPRPRPWIDPRP, for which the “shrunken log2 fold change” value was -0.0368.

RRIRHRPPRLPRPRPRPYFEPRP: the “shrunken log2 fold change” value is -0.76. Take RRIRYRPPRLPRPRPRPQGTPRP: the “shrunken log2 fold change” value is 0.034.

RRIRRRPPRLPRPRPRPHTTPRP: the “shrunken log2 fold change” value is -0.303. As to RRIRARPPRLPRPRPRPQRRPRP, the “shrunken log2 fold change” value stood at 0.366. Turning to RRIRTRPPRLPRPRPRPFQDPRP, the “shrunken log2 fold change” value came out at 0.00739. On to RRIRYRPPRLPRPRPRPQCTPRP, for which the “shrunken log2 fold change” value is -0.292.

With RRIRLRPPRLPRPRPRPHDGPRP, the “shrunken log2 fold change” value was 0.0171. As to RRIRKRPPRLPRPRPRPNARPRP, the “shrunken log2 fold change” value came to 0.076.

Regarding RRIRCRPPRLPRPRPRPIFKPRP, the “shrunken log2 fold change” value is -0.323. In the case of RRIRTRPPRLPRPRPRPKPPPRP, the “shrunken log2 fold change” value stood at 0.353. With RRIRQRPPRLPRPRPRPFTCPRP, the “shrunken log2 fold change” value is -0.158. On to RRIRNRPPRLPRPRPRPWLLPRP, for which the “shrunken log2 fold change” value was -0.436. Take RRIRLRPPRLPRPRPRPHIAPRP: the “shrunken log2 fold change” value was -0.205. In the case of RRIRGRPPRLPRPRPRPHRRPRP, the “shrunken log2 fold change” value was 0.205. As to RRIRMRPPRLPRPRPRPGDFPRP, the “shrunken log2 fold change” value turned out to be 0.215. The value for RRIRMRPPRLPRPRPRPRATPRP was 1.57; that for RRIRNRPPRLPRPRPRPNKLPRP was -0.36; that for RRIRWRPPRLPRPRPRPVLRPRP was 0.106. The value for RRIRCRPPRLPRPRPRPNEMPRP was -0.123. As to RRIRFRPPRLPRPRPRPLHGPRP, the “shrunken log2 fold change” value is -0.216. For RRIRPRPPRLPRPRPRPINMPRP, the “shrunken log2 fold change” value is -0.503. With RRIRPRPPRLPRPRPRPMTIPRP, the “shrunken log2 fold change” value was -0.421. RRIRHRPPRLPRPRPRPEYRPRP: the “shrunken log2 fold change” value is -0.0136.

With RRIRARPPRLPRPRPRPKNDPRP, the “shrunken log2 fold change” value came to 0.222.

Turning to RRIRVRPPRLPRPRPRPFAIPRP, the “shrunken log2 fold change” value is -0.765.
